Measurements from PMC5118228 (EJNMMI Research, 2016).
Where “and” joins values, the source holds several entries; their conditions need not be identical. Equal entries are not always repeated. Where two headings read alike, the source gives them in different places.

Legend:
AR42J tumor-bearing mice = settings: male, athymic nu/nu, mouse, in vivo, iv, 0.3 nmol
in vivo [1] = experiment: in vivo; set-up: species or system mice; settings: male, athymic nu/nu, mouse, iv, 0.3 nmol, total radioactivity
Method: Mice were euthanized at 10 and 60 min p.i. […] Blood, organs, and femur-containing femur marrow were collected and counted as described previously. The uptake was expressed as percentage of injected activity per gram of tissue (%IA/g).

nontumor-bearing mice = assay type: in vivo; settings: for median survival / MTD: nontumor-bearing mice; for survival rate at 90 days post-treatment: n=8; for MTD: 90 days, n=8/cohort
Method: (§1) MTD was defined as the highest dose given to the animals allowing 100% survival with no significant weight loss >15% throughout the experiment. Nontumor-bearing mice were randomly divided into seven cohorts used to evaluate MTD, six treatments and one control (n = 8/cohort); see Table 1. […] Control mice received DOTATATE (4 × 0.3 nmol) on four consecutive days. The animals were followed for 90 days. Serum was analyzed for the biomarker neutrophil gelatinase-associated lipocalin (NGAL) using ELISA (R&D Systems, 450 nm).

[2] = system: neutrophil gelatinase-associated lipocalin (NGAL); experiment: Serum NGAL by ELISA (kidney injury biomarker); assay type: in vivo, mice
Method: as §1

kidney = experiment: Renal dose-effect relation (logistic regression, LD50); assay type: in vivo, mice; settings: death before 90 days
Method: Dosimetry was performed according to the MIRD schema by using the spherical nodes S-factors from the Olinda/EXM software. S-factors were interpolated from the actual weight of the organs and tissue. All organs and tissue were assumed to be spherical with a density of […]. Mean radiation absorbed doses were obtained as a function-injected mass of peptide, assuming a homogeneous distribution in the tumor and organs. […] Owing to the short path length of α-particles, only the self-dose within each organ was included. The threshold for lethality was determined with renal absorbed dose and injected activity as indicators. Logistic regression analysis was used to determine the LD50 for presumed renal toxicity-related death.
Data analyses, graphs, and calculations were performed in Prism-5. Mann-Whitney t test was used to calculate the significance. The results of statistical tests were considered significant when P was <0.05. Biodistribution data were expressed as mean ± standard deviation (SD) and tumor volume data as mean ± standard error (SEM). Binary logistic analysis (forced entry method) was performed with SPSS software (IBM SPSS statistics, version 20).

AR42J tumor = settings: low-dose (16.8 ± 1.3 MBq) and high-dose (33.1 ± 3.7 MBq); AR42J tumor-bearing mice
Method: Athymic male nu/nu mice (Tachonic), 6–8 weeks old, were used in all studies. Tumor models were established by inoculating 5 × 10^6 rat pancreatic tumor AR42J cells (American Type Culture Collection) with high SSTR2 expression into the right hind flank of the animals. After 3 weeks, the tumor size reached approximately 200 mm^3. All animal experiments were carried out following Institutional Animal Care and Use Committee-approved protocol.
Toxicity and therapeutic efficacy were investigated in 18 animals (n = 6/cohort): control, low-dose (cumulative 16.8 ± 1.3 MBq), and high-dose (cumulative 33.1 ± 3.7 MBq) cohorts. Treatment started 23 days after xenograft inoculation. Control mice received in total 4 × 0.3 nmol DOTATATE on two consecutive days. Two injections of 0.3 nmol DOTATATE per day were given, with a time interval of at least 6 h. […] The high-dose cohort received four doses on two consecutive days, twice a day with a time interval of at least 6 h. […] Animals were monitored for 30 days starting on the day of treatment. Tumors were measured by caliper, and animals were weighed at least twice weekly. The endpoints chosen were weight loss >15% and tumor volume >2000 mm^3. […]

in vivo [3] = settings: male, athymic nu/nu, mouse, iv, 0.3 nmol, total radioactivity

C[C@@H](O)[C@H](NC(=O)[C@@H]1CSSC[C@H](NC(=O)[C@@H](Cc2ccccc2)NC(=O)CN2CCN(CC(=O)O)CCN(CC(=O)O)CCN(CC(=O)O)CC2)C(=O)N[C@@H](Cc2ccc(O)cc2)C(=O)N[C@H](Cc2c[nH]c3ccccc23)C(=O)N[C@@H](CCCCN)C(=O)N[C@@H]([C@@H](C)O)C(=O)N1)C(=O)O [^111In-DOTATATE, metal not drawn]
Tumor uptake (AR42J tumor-bearing mice; 10 min): 6.3 ± 1.3 %IA/g | Renal activity (AR42J tumor-bearing mice; 1 h): 10.9 ± 0.6 %IA/g | Tumor uptake (AR42J tumor-bearing mice; 1 h): 6.0 ± 1.2 %IA/g

C[C@@H](O)[C@H](NC(=O)[C@@H]1CSSC[C@H](NC(=O)[C@@H](Cc2ccccc2)NC(=O)CN2CCN(CC(=O)O)CCN(CC(=O)O)CCN(CC(=O)O)CC2)C(=O)N[C@@H](Cc2ccc(O)cc2)C(=O)N[C@H](Cc2c[nH]c3ccccc23)C(=O)N[C@@H](CCCCN)C(=O)N[C@@H]([C@@H](C)O)C(=O)N1)C(=O)O [^213Bi-DOTATATE, metal not drawn]
tissue uptake at 10 min (in vivo [1]; renal uptake): 30.8 ± 5.8 %ID/g | tissue uptake at 1 h (in vivo [1]; renal uptake): 18.4 ± 1.8 %ID/g | tissue uptake at 1 h (in vivo [1]; stomach uptake): 1.6 ± 0.5 %ID/g | median survival (nontumor-bearing mice; all treated cohorts except the high-dose without L-lysine): > 90 days | median survival (nontumor-bearing mice; high-dose without L-lysine, 28.7 ± 1.2 MBq): 24 days | survival rate at 90 days post-treatment (nontumor-bearing mice; high-dose(+), 28.3 ± 0.8 MBq, with L-lysine): 75% | survival rate at 90 days post-treatment (nontumor-bearing mice; high-dose(−), 28.7 ± 1.2 MBq, without L-lysine): 0% | MTD (nontumor-bearing mice; in absence of L-lysine): < 13.0 ± 1.6 MBq | survival rate at 90 days post-treatment (nontumor-bearing mice; low-dose(+), 13.2 ± 0.9 MBq, with L-lysine): 100% | survival rate at 90 days post-treatment (nontumor-bearing mice; low-dose(−), 13.0 ± 1.6 MBq, without L-lysine): 87.5% | survival rate at 90 days post-treatment (nontumor-bearing mice; medium-dose(+), 21.7 ± 1.9 MBq, with L-lysine): 100% | survival rate at 90 days post-treatment (nontumor-bearing mice; medium-dose(−), 20.7 ± 0.8 MBq, without L-lysine): 62.5% | MTD (nontumor-bearing mice; with L-lysine renal protection (35 mg i.p.)): 21.7 ± 1.9 MBq | NGAL level ([2]; high-dose(−), 28.7 ± 1.2 MBq, without L-lysine, serum ELISA): 15.8 ± 3.5 ng/mL | nephrotoxicity (NGAL) ([2]; low-dose(−) and low-dose(+) cohorts): No nephrotoxicity | threshold LD5 kidney dose (kidney): 11 ± 4 Gy | LD50 mean renal radiation absorbed dose (kidney; mice with and without L-lysine): 20 Gy and 20 ± 8 Gy | tumor volume (AR42J tumor): significantly decreased | tissue uptake at 1 h (in vivo [3]; Renal activity): 17.4 ± 2.2 %ID/g | tissue uptake at 10 min (in vivo [3]; Tumor uptake): 5.3 ± 2.8 %ID/g | tissue uptake at 1 h (in vivo [3]; Tumor uptake): 6.5 ± 2.3 %ID/g
